From paper PMC5454392, “Selective BET bromodomain inhibition as an antifungal therapeutic strategy” (Nature Communications, 2017)
Square brackets hold non-standard residues; d marks the D form. Ends that are not written are not given here. Arg(Me2s) = CN=C(NC)NCCC[C@H](N)C(=O)O; Lys(Me2) = CN(C)CCCC[C@H](N)C(=O)O; pS = N[C@@H](COP(=O)(O)O)C(=O)O; Me2a = not defined here; me2a = not defined here

T1: CaBdf1 BD2 (GST-tagged, wild-type) (Candida albicans (strain SC5314 / ATCC …, UniProt Q5A4W8))
T1 chain: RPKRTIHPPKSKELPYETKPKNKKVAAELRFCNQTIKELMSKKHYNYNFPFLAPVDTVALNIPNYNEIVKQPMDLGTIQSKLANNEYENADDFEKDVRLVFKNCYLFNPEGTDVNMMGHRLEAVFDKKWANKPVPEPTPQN

T2: CaBdf1 BD1 (GST-tagged, wild-type) (Candida albicans (strain SC5314 / ATCC …, UniProt Q5A4W8))
T2 chain: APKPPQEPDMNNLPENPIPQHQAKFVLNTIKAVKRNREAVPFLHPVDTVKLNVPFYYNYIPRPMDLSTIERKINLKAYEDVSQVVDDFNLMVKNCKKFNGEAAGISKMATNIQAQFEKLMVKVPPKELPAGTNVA


Legend:
[1] = molecular target: T1, CaBdf1 BD2 (GST-tagged, wild-type); test: histone peptide array (Active Motif MODified), 1 uM GST-tagged bromodomain, anti-GST detection, normalized mean intensity
[2] = molecular target: T2, CaBdf1 BD1 (GST-tagged, wild-type); test: as above

Binder | binding score [1] | binding score [2]
SGRGKGGKGLGKGGAKRHR (pS G R G K G G K G L G K G G A K R H R) | 0.00444 | 0.00471
ARTKQTARKSTGGKAPRKQ (A R T K Q T A R K S pT G G Kac A P R K Q) | 0.00999 | –
ARTK(Me2)QTARKSTGGKAPRKQ | 0.00148 | 0.00181
RKSAPATGGVKKPHRYRPG (R K S A P A T G G V Kac K P H R Y R P G) [H3 26-45] | 0.0122 | 0.0344
ARTKQTARKSTGGKAPRKQ (A Rme2s T Kme2 Q T A Rme2s Kme1 S T G G K A P R K Q) | 0.00407 | 0.00544
ARTK(Me3)QTAR(Me2a)K(Ac)STGGKAPRKQ (reading uncertain) | 0.00888 | 0.0359
PRKQLATKAAR(Me2s)K(Me2)SAPATGG | 0.00222 | 0.00254
SGRGKGGKGLGKGGAKRHR (S G R G K G G Kac G L G K G G A Kac R H R) | 0.00999 | 0.0228
PRKQLATKAARK(Me3)SAPATGG | 0.00851 | 0.00616
AR(Me2a)TK(Ac)QTAR(Me2a)K(Ac)STGGKAPRKQ (reading uncertain) | 0.0107 | 0.0413
SGRGKGGKGLGKGGAKRHR (S G Rme2s G K G G K G L G K G G A K R H R) | 0.00666 | 0.00399
PDPAK(Ac)SAPAPKKG[pS]KKAVT [H2B 1-19] | 0.00074 | 0.00689
ARTKQTARKSTGGKAPRKQ (A Rme2a T Kme1 Q T A Rme2a K S T G G K A P R K Q) | 0.00259 | 0.00435
SGRGKGGKGLGKGGAKRHR (S G Rme2s G K G G Kac G L G K G G A K R H R) | 0.00777 | 0.0152
ARTKQTARKSTGGKAPRKQ (A R T K Q T A Rme2a K S T G G K A P R K Q) | 0.00222 | 0.00326
SGRGKGGKGLGKGGAKRHR (S G R G Kac G G Kac G L G Kac G G A K R H R) | 0.179 | 0.0729
ARTK(me2)QTAR(me2a)K(me2)STGGKAPRKQ (reading uncertain) | 0.00259 | 0.000725
A[Arg(Me2s)]T[Lys(Me2)]QTARKSTGGKAPRKQ | 0 | 0.0029
ARTKQTARKSTGGKAPRKQ (A Rme2a T Kme1 Q T A R Kme2 S T G G K A P R K Q) | 0.0037 | 0.00326
ARTKQTARKSTGGKAPRKQ (A Rme2a T Kac Q T A Rme2s Kme2 S T G G K A P R K Q) | – | 0.00616
AR(me2a)TK(Ac)QTAR(me2a)K(me2)STGGKAPRKQ (reading uncertain) | 0.00703 | –
ARTKQTARKSTGGKAPRKQ (A R T K Q T A R Kac S T G G K A P R K Q) | 0.0037 | 0.0087
